# Experiment: soluble on expression in E. coli; label from the status in PepcDB or PDB records
row,Sequence,soluble on expression in E. coli
1,MPKVDVYDINGKVVGEINLRDDIFGIEVNKHAIHQVIVNQLANRRQGTQSTKTKSEVRGGGRKPWRQKGTGRARHGSIRSAQWVKGGIALGPKPRSYKYAVPKKLRRLALKSALSSKVNENELLVLDSLNFDEIKTKQMANVLKNLKVNDTTAVLVLADKNRNVELSARNIPGLKTLFVNTMNVYDIIRHDKFIITKDAVAKVEEVYA,not soluble
2,MPKVISQKEFNILSRTKERVNFQIVYTKQRNGLHKAAKEYFFKDKDFTIIEDTPDTPDQPDGPCITKGPKEPGGPEEPNGPDKPEDPKDPDTPDVSEGPKEQGGQKDPGGPDDPSEGKQKVSKPDKYVTHRELDEKLKDFATKADFKRVEDKVDVLFELQKTQGEQIKVQGEQIKAQGKQIEQLTETVKVQGEQIRAQGEQIKAQSEEIKEIKVEQKAQGEQIKELQVEQKAQGKTLQLILKTLEKMNERLEKLESKLEHHHHHH,not soluble
3,MPLPTELARHLTEEKIAFVQRSGLRAEVLEPGYVRLRMPGAGNENHIGSMYAGALFTLAELPGGALFLTSFDSARFYPIVKEMTLRFRRPAKGDIRVEARLDAERIRQLETEAGERGKAEYSLELQLTDEQGEVVAESAALYQLRSHARP,soluble
4,MPLSPYLSFAGNCADAIAYYQQTLGAELLYKLSFGEMPPSAADNEEGCPSGMRFPDTAIAHANMRIAGSDIMMSDASASGRAHYSGFTLVLDTQDVAEGKRWFDNLAAQGQIEMDWQETFWAQGFGKVSDRFGVPWMINVVKHQPAT,not soluble
5,MPLTLNQLAELSGRASEHVLAEEVEETGTPAEEILARLRERLAVMRDSVRRGLASDAPSVAGLVGKNAKTLWEAPDPLQDPLLKRVQAYAMAVNEENARMGRIVAAPTAGSAGTLPGALLGVADHLGIPDEELLMPLVLAGGVAKMIGRVIHIAGASGGCQAEIGSSAAMAAAAVTELLGGTPEACAHAAALALQNTLGLVCDPVGGFVEVPCVMRNGFYAVHAVSAASMALAGIRSVIPPDEVVLAMAGIGRLLPLELKETGLGGLADTPTGRRLAEEALKKT,soluble
6,MPLTLYQRDDCHLCDQAVEVVAQARAGDFDSVFIDDDAALEAVYGARVPVLRDARGRELEWPFDRVRLRAWLDDDAERLEHHHHHH,not soluble
7,MPLTPADVHNVAFNKPPIGKRGYNEDEVDQFLDLVEDALVQFQEENEDLKQQVEELEAQVAGGTSSAASSSTAGAATAAASKSVDEAALRKEIEEKLRSEYASKLDDASKAAQKAQNDAKSAQDQLQRAQADAKAARDEAEKAKAEAKSAASSSTTKAAAVGAVGAGTGAAVATGAANVDTHMQAAKVLGLAQEMADRLTSEARSESKSMLDEAREAAEKQIEEANSTSNRTLEDARANAEKQIAEAQNRADTLVNEADAKAKNLVSEAEKKSAATLAASTSRAEAQIRQAEDKANALQADAERKHTETMAAVKEQQNALETRIAELQTFEREYRTRLKSLLEGQLEELNARGSSAPTNNKPSGE,not soluble
8,MPLVSMKEMLNKALEGKYAVGQFNMNNLEWTQAILAAAEEEKSPVILGVSEGAARHMTGFKTVVAMVKALIEEMNITVPVAIHLDHGSSFEKCKEAIDAGFTSVMIDASHHPFEENVETTKKVVEYAHARNVSVEAELGTVGGQEDDVIAEGVIYADPAECKHLVEATGIDCLAPALGSVHGPYKGEPNLGFAEMEQVRDFTGVPLVLHGGTGIPTADIEKAISLGTSKINVNTENQIEFTKAVREVLNKDQEVYDPRKFIGPGRDAIKATVIGKIREFGSNGKA,not soluble
9,MPMFIVNTNVPRASVPDGFLSELTQQLAQATGKPPQYIAVHVVPDQLMAFGGSSEPCALCSLHSIGKIGGAQNRSYSKLLCGLLAERLRISPDRVYINYYDMNAANVGWNNSTFALEHHHHHH,soluble
10,MPMKDVLSRIGIGSATVDTVLPTDSVRAGESVRAEVHVEGGSTDQNIDSVYFALETEYKSDEGYKDAIIDQWQLTEPFTIEAGEKRRFETTIDIPRETPVTTRSTAVEIETGLDISMAVDPGDEDYIEVEPTHRTQAVFDALDSLGFSLHASACEAAAGSLFTTSANFAQEFEFRPQRGEFTGAVDEVEIVPVFDDDRLTVYLEVDRSAGLLSEVTDADERHTKLTIEAPDPDAIEPRLAEAIRELS,not soluble
11,MPMLTRILLLLCVALNAPLASAKETLHIYAASSMTNAVNALVADYSQQHDVKLVTVYGGSSSLARQIEAGAPADLFISANEEWANYLVEKGLVKPNKVVTLAANSLVLIRPTAQPVASFELQDAAAWQTALADSRLAVAQVDAVPAGMYAKQALQHAGVWPELESRLAQTNNVRLALALVERGESPLGIVYKTDALLSDKVTIVTAFSAQSHQPIRYPLAQLNDKAASAEWVAYLRSDAAQQILQRFGFESVSE,not soluble
12,MPNDMTHIDKIQALAFSIGKKMQTELLEQMQATGLTPPQFYILKILDHYGASRATTLAKKMYVKPSAITVMIDRLIDQELVERYHDKDDRRVVIIELTKKGKARVEEAMTARNEHIAKYFSHLELQEREDLLRLFEKLETIICGTQEKKENN,not soluble
13,MPPKQQGPSKKSEQKRKEKVIEDKTFGLKNKKGNKNQKFVAQVENQVRNNNTRMDLVRQQEAAKKKEKDELLDIANLLKPVEQKVAKDVDPKSLLCVFFKQGLCGKGAKCKFSHDLAVAQKTAKKNLYADSREVEKDEETNENWDSDKLNEVVNKKNKNKHMIDIVSSFMTDIFKFKKLNFKVCKYFLEAVENNKYGWFWECPNGGEKCQYRHCLPEGYVLKKERKAMEQQKEDEISIEELVEKERAALSSKNLTKLTLQTFIAWKKKKLRERKEKEEADLKEKKEKIKSGKHNGMSGRDLFLYDANLVNNDDDEAGDIEMEKEEVDENEKVFEIDANFFKFDGMDDELTDQMSKSSTAVESTAKGMAKMDINEDLFDIDEDVENLDSDED,soluble
14,MPPPLPYDAMRSVWTDTAAPAMATAPLAGHADCDVAIVGAGITGLSAALHLAERGLRACVLEARDPGWGASGRNGGQVIPGIKHDPDEILARHGRERGEPLLHMVGTAADTVFDLIDRYGLDLVQAQIRLAAGERLDRVVPADLQPSGHAIELRVYAEDPVRFIPSPGTLAVFELPQGPGVRTETGYHAGNAVSPHYDPMIAKIIVHGADRAQAIARAEQALADTEIAGVKTNLPFLARALAFEPWRQGRLHTGIVARTLAEPAPAALTALEHHHHHH,not soluble
15,MPPRPRMLAAAITAALALGAQAVPAAAADGPAGDSTATTSRGVEIPAFYTPPSELPAADGTLIRHEPLPLALSLPGIDGPLPGRATRLMYKSTDANGEAVAVTGAYVEPAAKWRGDGPRPLVAVAPGTMGQGDQCAASMALEHPLQLNGQTVSVGYEDLSVYRLLLRGVAVVVTDYVGLGTTDRLHTYVNRVDGAHAVLDAVRAARSLDSASVTSDSRVGLFGYSQGGGATAAAAELQPSYAPDVQLAGTYAGAPPADLTEVTKAIDGSDLAGALGWSLNGFLQTEPALRPIADRYINEAGQEALKDLSTMCVGDALFGYGGDSSTDWTRTGQSISDVIRAEPALQSFLAEQRIGSTAPGSPVRVATGVSDDLVPHGQARRLAVDWCGKGGKVTYVPVLIPGVGSGLLNHFAPLLADQGNAIAWLTDRLSGEPAGSNCWSMPVQPLEHHHHHH,soluble
16,MPQTERQLRVWIEGATGRRIGDNFMDGLKDGVILCELINKLQPGSVQKVNDPVQNWHKLENIGNFLRAIKHYGVKPHDIFEANDLFENTNHTQVQSTLIALASQAKTK,soluble
17,MPQVETTSVFRADLLKEMESSTGTAPASTGAENLPAGSALLVVKRGPNAGARFLLDQPTTTAGRHPESDIFLDDVTVSRRHAEFRINEGEFEVVDVGSLNGTYVNREPRNAQVMQTGDEIQIGKFRLVFLAGPAELEHHHHHH,soluble
18,MPRARCKRCLRPTGYCLCALIPQIESRTRVLILQHPDEVSHALNTARLAALGLVNAQLCVGEVFDDLHTLLNPPGYQARLLFPGDAAETLTAYAPDATPMLLVVPDGTWRKARKLLHLNPLLAALPRVTLGSVPASRYRLRKAPGPEALSTLEAIVHTLQTLEAPNAFEALLKPFDALIDGQIQAMGNDTYQRNHGNQRLEHHHHHH,not soluble
19,MPRIAIPDDLTEILTVVEFPLPNAPEIKIEIERLLQATGNSLSGKVTDDLVRSCQGLSMERIRRVLAKAIATHGELQPEDVDLVLEEKRQTIRQTQILDFYPATEQISDIGGLDNLKDWLLRRGGSFSERARQYGLPHPRGLLLEHHHHHH,not soluble
20,MPRLALRQYNFYYRVNGEKAEELLKEYGEDGDFLLRYSESNPQNFSISVRVAEDKILHIKVTKYESDMLSIFEDERTTPNQFGSITELAEFYMEFPEKLREKNGLFLELKKPVYVPYHLEACAEEQRRTQLYRWWHGNLPASSANKLLQTEKNGTYLLRASQHIPGALVISAKTEGQVVHLTIYQDPSTGRFNIDGDRTKFQSAWLLIDSYSKNPIVEKGEASRVLYLEEPLFNTFIEADLFVDRFEIIRRPINPRESMEKTGISEEFDRLSQEALPAEQYLSKREGRRPVNAEKNRYKNIVPFDHTRVILTDRPNTPGSDYINASYVRFENSQRTKNVTFACEKSFIATQGCLETTISDFWSMVWQENSRVIVMPTMENERKEKCARYWPAEVNKPEVHGDISLTCTIERKVQRAVSDEVKAELEQEKTNRIAKGLVPEAELNGDGISYILRTLVMKKGKDTREIRQLQYLTWPDHGCPLHPYAVLNFLEDVDREYDYFNAQPIAASLPQGPIVVHCSAGIGRTGTVLVLDALLNQVKKVGLLCPMDVYKMVKYVRTYRSGLVQTEQQYQFLYKALAFYLKNNNPYPVKSFIDGDTDAFDFPRRLRPTPNASRPSSARQVTSSRPSSSASSRTSHSRPRTGPQAEPIFERSTSSTSSSSTLLKSTKK,not soluble
21,MPRVDHGSPQAGPPAPCVGILLAGGQGRRFAAASGGQDKLLARLADGTAVAVRAAAALREATDAVVAVVRPESAVLAALLRGQGCHVLESEQAREGMGASLAAAARFLLAGQVPDMPERADVCLVALADMPWVRRDTLSAVRAAACADGITVPVHQGRRGHPVAFGRSLWGELAALRGDVGARELLRRHRVAAVEVDDPGVAADVDTPGDLAGDRALEHHHHHH,not soluble
22,MPRYPFRRFGFGALRRLLYLWVRSETINQSAFTLKIDRSKPVLYVLQQPSVSDLAVVDTECRKAGLPRPVMPVAVGDAIEPAAFFYLTPEPDWLGRQDKRGASPTLVRMLAAVGQNGLDDAQIIPVSVFWGQSPDSESSPWKLLFADNWAVTGRLRKLARILILGRKTRVQFSAPIHLRELVEQGKGHERTLRMVNRILRVHFRNLKTAVIGPDLSHRRNLVKGLLRAPLVRQAISEECESERISQEKAEGIALRYANEIASDFSYPVIRFLEVILSWFWNKLYEGVKVNHIERVQDVAQGNEIVYVPCHRSHIDYLLLSYLLFRNGLTPPHIAAGINLNMPVIGSILRRGGAFFMRRSFKGNQLYTAVFNEYLHTLFSRGFSTEYFVEGGRSRTGRMLHPRTGMLAITLRSFLRDSRRPIVFVPVYIGYERVLEGRTYLGELRGATKKKESIFDLFKVVGALKQRFGQVWVNFGEPIHLDQFLDRHQPDWQDQDLGPEYRPDWLPQTTNLLAKDVARHLNDAAAINPVNLVALALLSTSRQALDESALARILDLYLALLRKVPYSPSATLPDGDGQALIEYVKSMNLLAEQKDALGRILYLDEQNAVLATYYRNNVLHVFALPALIASFFQSNSRISREQLLRFARALYPYLQAELFIRWSLDELDAVIDQWLAALVEQDLLRQENDTFIRPAPSSRQYVLLILLARSVTQTLQRFYMAIALLLNAGQNALTAEELENLCTVMAQRLSILHGLNAPEFFDKSLFRHFIQTLLDLRVLRKDEAGKLSYHELLGELAEGAAKRVLPAEIRLSIRQVALERPAEEAAAESN,not soluble
23,MPSCDPGPAPACLPTKTFRSYLPRCHRTYSCVHCRAHLAKHDELISKSFQGSHGRAYLFNSVVNVGCGPAEQRLLLTGLHSVADIFCESCKTTLGWKYEQAFETSQKYKEGKYIIEMSHMVKDNGWD,soluble

# — the DeepSol protein solubility set
